{
  "source": "patent US20130108608",
  "proteins": {"B1": {"name": "PMN elastase (protein)", "chain": "IVGGRRARPHAWPFMVSLQLRGGHFCGATLIAPNFVMSAAHCVANVNVRAVRVVLGAHNLSRREPTRQVFAVQRIFENGYDPVNLLNDIVILQLNGSATINANVQVAQLPAQGRRLGNGVQCLAMGWGLLGRNRGIASVLQELNVTVVTSLCRRSNVCTLVRGRQAGVCFGDSGSPLVCNGLIHGIASFVRGGCASGLYPDAFAPVAQFVNWIDSIIQ"}},
  "molecular_target": "T1, recombinant human full-length TrpRS with C-terminal His6 tag",
  "T1 chain": "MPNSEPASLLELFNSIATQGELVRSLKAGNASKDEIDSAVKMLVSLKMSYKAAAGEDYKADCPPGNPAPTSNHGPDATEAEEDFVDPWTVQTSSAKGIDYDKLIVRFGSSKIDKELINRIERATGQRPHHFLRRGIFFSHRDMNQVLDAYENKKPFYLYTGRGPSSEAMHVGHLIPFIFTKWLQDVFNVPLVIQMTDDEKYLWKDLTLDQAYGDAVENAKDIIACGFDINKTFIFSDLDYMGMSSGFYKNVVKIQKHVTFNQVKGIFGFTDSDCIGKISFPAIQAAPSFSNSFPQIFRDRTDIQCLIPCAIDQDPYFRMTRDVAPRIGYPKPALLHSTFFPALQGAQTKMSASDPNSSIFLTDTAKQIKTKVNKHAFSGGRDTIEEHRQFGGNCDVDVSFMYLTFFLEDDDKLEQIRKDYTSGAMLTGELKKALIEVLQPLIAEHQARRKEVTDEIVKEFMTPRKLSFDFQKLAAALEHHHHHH",
  "data": [
    {"protein": "B1", "values": [
      {"measurement": "cleavage of TrpRS by the protease, fragments on 12.5% SDS-PAGE", "value": "PMN elastase cleavage of a full-length TrpRS of about 53 kDa generated a major fragment of about 46 kDa (SEQ ID NO: 5, T1, having the C-terminal histidine tag, or an SY variant thereof) and a minor fragment of about 43.5 kDa"}
    ]}
  ]
}
